± gives the uncertainty stated by the source.
Test: self-splicing fitness, log relative to wild type (ln ratio); higher = more splicing; Tetrahymena group I intron in knt gene, E. coli kanamycin selection, DiMSum; sequences stand for … in CUCUCU…GGAGGGAAAAGUUAUCAGGCAUGCACCUGGUAGCUAGUCUUUAAACCAAUAGAUUGCAUCGGUUUAAAAGGCAAGACCGUCAAAUUGCGGGAAAGGGGUCAACAGCCGUUCAGUACCAAGUCUCAGGGGAAACUUUGAGAUGGCCUUGCAAAGGGUAUGGUAAUAAGCUGACGGACAUGGUCCUAACCACGCAGCCAAGUCCUAAGUCAACAGAUCUUCUGUUGAUAUGGAUGCAGUUCACAGACUAAAUGUCGGUCGGGGAAGAUGUAUUCUUCUCAUAAGAUAUAGUCGGACCUCUCCUUAAUGGGAGCUAGCGGAUGAAGUGAUGCAACACUGGAGCCGCUGGGAACUAAUUUGUAUGCGAAAGUAUAUUGAUUAGUUUUGGAGUACUCGUGGUCG
In short: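 DiMSum derived fitness as the error-weighted combination of fold changes across replicates, kanamycin versus no kanamycin, normalised to wild type. E. coli BL21(DE3) held the library, which randomised all eight P1ex-region intron nucleotides within the knt kanamycin-resistance gene on pET-22b(+). Six replicate transformations grew overnight at 37°C or 30°C on LB agar with or without 25 μg/mL kanamycin, also containing 100 μg/mL carbenicillin, 50 μM IPTG and 0.2% rhamnose, and pooled colonies were amplicon-sequenced on an Illumina HiSeq 2500.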

| Sequence | self-splicing fitness (ln) (30 °C) | self-splicing fitness (ln) (37 °C) |
| --- | --- | --- |
| UCAUAGCAAUAUUACGGUUG | -3.07 ± 0.19 | -1.94 ± 0.17 |
| CAAUAGCAAUAUUACGUAUU | -3.25 ± 0.21 | -2.65 ± 0.18 |
| CCUCAGCAAUAUUACGAAUG | -1.01 ± 0.089 | -0.196 ± 0.1 |
| GCGAAGCAAUAUUACGGCCU | -1.4 ± 0.12 | 0.334 ± 0.16 |
| ACCGAGCAAUAUUACGCAGA | -2.2 ± 0.19 | -2.51 ± 0.23 |
| AACGAGCAAUAUUACGCAAU | -4.26 ± 0.36 | -2.45 ± 0.27 |
| CUUUAGCAAUAUUACGCGAU | -3.05 ± 0.24 | -0.751 ± 0.17 |
| AAGAAGCAAUAUUACGUAGA | -2.64 ± 0.13 | -1.01 ± 0.11 |
| CGUCAGCAAUAUUACGGCAU | -0.76 ± 0.074 | -0.608 ± 0.081 |
| GAAAAGCAAUAUUACGGGUC | -2.09 ± 0.14 | -2.58 ± 0.22 |
| AGCUAGCAAUAUUACGAGGU | -2.73 ± 0.14 | -1.31 ± 0.13 |
| UAGCAGCAAUAUUACGCUAC | -2.76 ± 0.32 | -2.13 ± 0.44 |
| ACAAAGCAAUAUUACGACCC | -0.934 ± 0.16 | 0.532 ± 0.21 |
| AGCUAGCAAUAUUACGAAUC | – | -1.56 ± 0.28 |
| AUUUAGCAAUAUUACGGGAA | -2.24 ± 0.26 | -1.84 ± 0.19 |
| GGCGAGCAAUAUUACGGCUG | -0.315 ± 0.15 | -0.389 ± 0.28 |
| AGGCAGCAAUAUUACGGGGA | – | -3.03 ± 0.23 |
| CAAAAGCAAUAUUACGACGA | -0.512 ± 0.09 | -0.343 ± 0.094 |
| GUCGAGCAAUAUUACGGGCU | -2.06 ± 0.23 | -1.53 ± 0.28 |
| ACCCAGCAAUAUUACGGGAC | -2.71 ± 0.1 | -1.54 ± 0.1 |
| AAAUAGCAAUAUUACGGAGA | -1.86 ± 0.23 | -2.11 ± 0.3 |
| AAGCAGCAAUAUUACGUGUC | -2.94 ± 0.15 | -2.01 ± 0.15 |
| AUAAAGCAAUAUUACGUUGA | -2.1 ± 0.095 | -1.77 ± 0.13 |
| GUGUAGCAAUAUUACGUGCU | -1.44 ± 0.11 | -1.09 ± 0.13 |
| CUGUAGCAAUAUUACGUAGC | -5.54 ± 0.36 | -2.93 ± 0.32 |

| Sequence | self-splicing fitness (ln) (30 °C) | self-splicing fitness (ln) (37 °C) |
| --- | --- | --- |
| CUGAAGCAAUAUUACGUUUA | -3.97 ± 0.24 | – |
| UAAGAGCAAUAUUACGCAUA | -1.8 ± 0.39 | -1.59 ± 0.3 |
| AAUCAGCAAUAUUACGGUCC | -0.242 ± 0.085 | -0.118 ± 0.1 |
| UCCCAGCAAUAUUACGUGCC | -4.06 ± 0.23 | -2.32 ± 0.2 |
| UGAGAGCAAUAUUACGCCGC | -3.41 ± 0.23 | -2.5 ± 0.31 |
| AUAUAGCAAUAUUACGGUGU | -2.03 ± 0.16 | -1.38 ± 0.17 |
| UCGUAGCAAUAUUACGGCCG | -1.51 ± 0.36 | -0.102 ± 0.27 |
| AUAUAGCAAUAUUACGGGUU | -3.43 ± 0.14 | -2.51 ± 0.14 |
| AGAUAGCAAUAUUACGACUG | -1.38 ± 0.2 | 0.221 ± 0.29 |
| AUGAAGCAAUAUUACGGCGA | 0.267 ± 0.082 | 0.989 ± 0.11 |
| AUAUAGCAAUAUUACGAGGA | – | -2.44 ± 0.38 |
| CUGAAGCAAUAUUACGGUCU | -4.07 ± 0.36 | -2.24 ± 0.27 |
| CACAAGCAAUAUUACGUAGA | -1.83 ± 0.081 | -1.73 ± 0.11 |
| CUCCAGCAAUAUUACGAUAA | -3.22 ± 0.16 | -2.41 ± 0.18 |
| UGAGAGCAAUAUUACGCGUC | -2.95 ± 0.38 | -1.37 ± 0.41 |
| AAAGAGCAAUAUUACGACCA | -1.98 ± 0.18 | – |
| UAAAAGCAAUAUUACGGGGC | -3.59 ± 0.23 | -2.33 ± 0.25 |
| AGUGAGCAAUAUUACGUGGA | -2.63 ± 0.32 | -1.49 ± 0.28 |
| AGCUAGCAAUAUUACGCUUC | -3.25 ± 0.3 | -2.65 ± 0.28 |
| GUGAAGCAAUAUUACGCGUG | -0.812 ± 0.057 | -0.134 ± 0.061 |
| AACCAGCAAUAUUACGAGCA | -1.02 ± 0.092 | -0.505 ± 0.1 |
| CCUGAGCAAUAUUACGAUAU | -4.45 ± 0.37 | -2.39 ± 0.23 |
| AAAAAGCAAUAUUACGUCAU | -2.2 ± 0.08 | -1.14 ± 0.092 |
| CUGUAGCAAUAUUACGCGUU | -4.19 ± 0.3 | -2.26 ± 0.18 |
| UUGAAGCAAUAUUACGCAUA | -0.461 ± 0.072 | 0.189 ± 0.1 |

| Sequence | self-splicing fitness (ln) (30 °C) | self-splicing fitness (ln) (37 °C) |
| --- | --- | --- |
| UGGAAGCAAUAUUACGCGCG | 0.222 ± 0.15 | 0.698 ± 0.15 |
| CGGCAGCAAUAUUACGACUC | -0.739 ± 0.097 | -0.759 ± 0.1 |
| AUACAGCAAUAUUACGGUGA | -0.847 ± 0.063 | 0.283 ± 0.077 |
| UCUUAGCAAUAUUACGCACA | -1.04 ± 0.22 | -0.879 ± 0.23 |
| AGUUAGCAAUAUUACGCUUA | -1.3 ± 0.15 | -0.343 ± 0.16 |
| CGAUAGCAAUAUUACGCGGU | -3.13 ± 0.27 | -1.94 ± 0.19 |
| AUGGAGCAAUAUUACGAGCU | -3.12 ± 0.27 | -2.17 ± 0.37 |
| CAAGAGCAAUAUUACGAAUU | -3.25 ± 0.17 | -2.64 ± 0.32 |
| UAUCAGCAAUAUUACGUACC | -2.13 ± 0.18 | -0.91 ± 0.21 |
| AAAUAGCAAUAUUACGGGAU | -2.7 ± 0.099 | -1.03 ± 0.11 |
| UCUGAGCAAUAUUACGUAGC | – | -2.04 ± 0.27 |
| CCGAAGCAAUAUUACGGAUA | – | -1.18 ± 0.2 |
| CCUAAGCAAUAUUACGGACC | -3.02 ± 0.49 | – |
| UAUCAGCAAUAUUACGUCGU | -3.02 ± 0.12 | -1.6 ± 0.1 |
| ACUGAGCAAUAUUACGGAAA | -2.92 ± 0.27 | -2.61 ± 0.28 |
| CAUCAGCAAUAUUACGGACC | -3.04 ± 0.24 | -0.899 ± 0.22 |
| GGAAAGCAAUAUUACGCAGU | -2.78 ± 0.13 | -1.47 ± 0.12 |
| GAGCAGCAAUAUUACGCCCC | -2.24 ± 0.47 | – |
| GUGCAGCAAUAUUACGUAAG | 0.0919 ± 0.087 | -0.00974 ± 0.1 |
| UGCGAGCAAUAUUACGAACU | -1.88 ± 0.11 | 0.0543 ± 0.09 |
| AGGUAGCAAUAUUACGUCUG | -0.641 ± 0.013 | -0.161 ± 0.033 |
| CCAUAGCAAUAUUACGACAU | -3.882 ± 0.026 | -2.93 ± 0.04 |
| UAGAAGCAAUAUUACGCGAG | -0.342 ± 0.12 | -0.636 ± 0.12 |
| UACAAGCAAUAUUACGUGUC | -3.91 ± 0.14 | -1.15 ± 0.094 |
| CUUAAGCAAUAUUACGACCU | -1.75 ± 0.39 | – |

| Sequence | self-splicing fitness (ln) (30 °C) | self-splicing fitness (ln) (37 °C) |
| --- | --- | --- |
| GGGCAGCAAUAUUACGUGCU | -3.46 ± 0.22 | -2.16 ± 0.25 |
| UCGCAGCAAUAUUACGCGCC | -3.12 ± 0.17 | -1.59 ± 0.13 |
| GCACAGCAAUAUUACGCAAA | -1.72 ± 0.15 | -0.898 ± 0.16 |
| CAAAAGCAAUAUUACGAAAU | -3.75 ± 0.17 | -2.89 ± 0.23 |
| GACGAGCAAUAUUACGUGAU | -3.53 ± 0.17 | -2.6 ± 0.16 |
| AUGUAGCAAUAUUACGCGAA | -0.976 ± 0.088 | -1.04 ± 0.13 |
| GCGUAGCAAUAUUACGUCGC | -2.62 ± 0.13 | -1.84 ± 0.21 |
| ACCUAGCAAUAUUACGGGCG | -0.0397 ± 0.068 | -0.0691 ± 0.084 |
| UCACAGCAAUAUUACGCUGA | -2.76 ± 0.18 | -1.54 ± 0.14 |
| GACUAGCAAUAUUACGCUAA | -1.08 ± 0.12 | -0.983 ± 0.13 |
| UGGCAGCAAUAUUACGCCCA | -1.66 ± 0.15 | 0.585 ± 0.24 |
| AAUCAGCAAUAUUACGACAC | -0.56 ± 0.12 | -1.46 ± 0.15 |
| CAGUAGCAAUAUUACGGUUA | -2.63 ± 0.14 | -2.69 ± 0.15 |
| CGGAAGCAAUAUUACGCGUG | -1.54 ± 0.16 | -0.867 ± 0.17 |
| CUAGAGCAAUAUUACGAGUU | -3.23 ± 0.31 | -2.36 ± 0.3 |
| GAUCAGCAAUAUUACGAGUU | -1.26 ± 0.094 | -0.882 ± 0.12 |
| GAAGAGCAAUAUUACGGGCC | -2.16 ± 0.29 | – |
| GGGGAGCAAUAUUACGUAGC | -2.01 ± 0.24 | -1.91 ± 0.36 |
| AGUCAGCAAUAUUACGAAAU | -1.76 ± 0.078 | -0.398 ± 0.094 |
| GGAUAGCAAUAUUACGACGG | – | -2.87 ± 0.48 |
| CUAAAGCAAUAUUACGAGGC | -3.6 ± 0.16 | -1.92 ± 0.16 |
| CGUAAGCAAUAUUACGCUGA | -3.48 ± 0.42 | -1.42 ± 0.18 |
| GGAUAGCAAUAUUACGAACG | 0.209 ± 0.14 | -0.196 ± 0.18 |
| ACAUAGCAAUAUUACGGGGG | -3.09 ± 0.14 | -2.58 ± 0.2 |

— the supplement of paper PMC7877785
